From PMC8294587, “Intrinsic differences in the mechanisms of Tie2 binding to angiopoietins exploited by directed evolution to create an Ang2-selective ligand trap” (The Journal of Biological Chemistry, 2021) come the findings set out here.

Positions count from the first letter of the chain named. Names and notes keep the numbering of the source.

Broadly, the EC50 is the concentration needed to bring the measured effect to its halfway point.

What all share (experiment): ELISA; recombinant Ang1 or Ang2 immobilised on Maxisorp plates, blocked with TBS, 0.1% Triton-X100, 5% milk powder; Tie2 ectodomain proteins bound for 1 h; detected with anti-Tie2 ectodomain antibodies; EC50 = concentration of ectodomain for 50% of maximal binding
Conditions in all cases: both partners purified
(ELISA stands for enzyme-linked immunosorbent assay.)

For test [1], the target named is T1, Angiopoietin-2 (UniProt O15123 19-496).
T1 construct: recombinant Ang2; the residue numbers printed for Ang2 (Asp448, Phe469, Ser480) come from the cited structure 2GY7; also called Ang2; source: recombinant
T1 sequence (looked up): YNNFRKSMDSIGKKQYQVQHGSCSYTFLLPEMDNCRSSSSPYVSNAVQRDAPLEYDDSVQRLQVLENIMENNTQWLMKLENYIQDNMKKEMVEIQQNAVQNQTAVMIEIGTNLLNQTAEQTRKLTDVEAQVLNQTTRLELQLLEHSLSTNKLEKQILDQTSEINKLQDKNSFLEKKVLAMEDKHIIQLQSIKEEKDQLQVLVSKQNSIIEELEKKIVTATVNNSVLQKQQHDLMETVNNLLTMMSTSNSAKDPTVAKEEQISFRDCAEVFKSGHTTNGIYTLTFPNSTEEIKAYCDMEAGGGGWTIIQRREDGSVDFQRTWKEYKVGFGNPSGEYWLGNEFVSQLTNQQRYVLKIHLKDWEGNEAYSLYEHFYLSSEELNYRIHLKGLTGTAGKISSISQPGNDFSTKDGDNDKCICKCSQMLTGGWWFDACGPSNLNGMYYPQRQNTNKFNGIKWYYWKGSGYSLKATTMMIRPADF

Test [2] addresses T1, Angiopoietin-2. This is another data set of the same source.
For test [3], the target named is T2, Angiopoietin-1 (UniProt Q15389 16-498).
T2 construct: recombinant Ang1; the residue numbers printed for Ang1 (Gln415, Asp450, Leu471, Tyr478) come from the cited structure 4K0V; also called Ang1; source: recombinant
T2 sequence (looked up): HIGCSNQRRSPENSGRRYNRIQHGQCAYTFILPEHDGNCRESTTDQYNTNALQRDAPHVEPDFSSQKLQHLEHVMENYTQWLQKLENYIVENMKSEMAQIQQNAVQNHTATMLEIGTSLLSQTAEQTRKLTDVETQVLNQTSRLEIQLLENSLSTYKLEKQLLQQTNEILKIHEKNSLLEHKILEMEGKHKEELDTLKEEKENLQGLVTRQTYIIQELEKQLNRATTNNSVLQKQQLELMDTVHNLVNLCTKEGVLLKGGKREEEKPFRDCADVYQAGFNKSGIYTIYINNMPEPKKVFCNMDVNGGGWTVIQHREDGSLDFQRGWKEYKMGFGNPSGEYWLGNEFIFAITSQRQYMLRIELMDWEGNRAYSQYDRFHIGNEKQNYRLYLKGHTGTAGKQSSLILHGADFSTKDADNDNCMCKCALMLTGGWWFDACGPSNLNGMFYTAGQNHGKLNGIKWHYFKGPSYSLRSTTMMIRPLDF

Test [4] concerns the target T2, Angiopoietin-1. The source holds these as a separate data set.

B1: monomeric wild-type Tie2 ectodomain (domain or fragment, human, UniProt Q02763 23-748, looked up)
chain: AMDLILINSLPLVSDAETSLTCIASGWRPHEPITIGRDFEALMNQHQDPLEVTQDVTREWAKKVVWKREKASKINGAYFCEGRVRGEAIRIRTMKMRQQASFLPATLTMTVDKGDNVNISFKKVLIKEEDAVIYKNGSFIHSVPRHEVPDILEVHLPHAQPQDAGVYSARYIGGNLFTSAFTRLIVRRCEAQKWGPECNHLCTACMNNGVCHEDTGECICPPGFMGRTCEKACELHTFGRTCKERCSGQEGCKSYVFCLPDPYGCSCATGWKGLQCNEACHPGFYGPDCKLRCSCNNGEMCDRFQGCLCSPGWQGLQCEREGIQRMTPKIVDLPDHIEVNSGKFNPICKASGWPLPTNEEMTLVKPDGTVLHPKDFNHTDHFSVAIFTIHRILPPDSGVWVCSVNTVAGMVEKPFNISVKVLPKPLNAPNVIDTGHNFAVINISSEPYFGDGPIKSKKLLYKPVNHYEAWQHIQVTNEIVTLNYLEPRTEYELCVQLVRRGEGGEGHPGPVRRFTTASIGLPPPRGLNLLPKSQTTLNLTWQPIFPSSEDDFYVEVERRSVQKSDQQNIKVPGNLTSVLLNNLHPREQYVVRARVNTKAQGEWSEDLTAWTLSDILPPQPENIKISNITHSSAVISWTILDGYSISSITIRYKVQGKNEDQHVDVKIKNATITQYQLKGLEPETAYQVDIFAENNIGSSNPAFSHELVTLPESQAPADLGGGKMLL
notes: wild-type Tie2 ectodomain, monomeric form; also called Wt monomer; monomeric Tie2
In the case of B1, in the test with Angiopoietin-2 [1], the EC50 turned out to be 22.7 nM.

B2: R5 Tie2 ectodomain-Fc (Phe161Ile, deletion of Arg167 and His168, Ser164Leu, Pro171Ser) (Fc fusion, human, UniProt Q02763 23-442, looked up)
chain: AMDLILINSLPLVSDAETSLTCIASGWRPHEPITIGRDFEALMNQHQDPLEVTQDVTREWAKKVVWKREKASKINGAYFCEGRVRGEAIRIRTMKMRQQASFLPATLTMTVDKGDNVNISFKKVLIKEEDAVIYKNGSIIHLVPEVSDILEVHLPHAQPQDAGVYSARYIGGNLFTSAFTRLIVRRCEAQKWGPECNHLCTACMNNGVCHEDTGECICPPGFMGRTCEKACELHTFGRTCKERCSGQEGCKSYVFCLPDPYGCSCATGWKGLQCNEACHPGFYGPDCKLRCSCNNGEMCDRFQGCLCSPGWQGLQCEREGIQRMTPKIVDLPDHIEVNSGKFNPICKASGWPLPTNEEMTLVKPDGTVLHPKDFNHTDHFSVAIFTIHRILPPDSGVWVCSVNTVAGMVEKPFNISVK
notes: signal peptide in the construct; Tie2 ectodomain, human, residues 1-442, variant from directed evolution; also called R5-Fc; evolved ectodomain; source: Hek293, transfected, purified from culture medium (nickel chromatography); not shown: Fc (fragment of human Fc immunoglobulin domain, after a GS4 linker), C-terminal, kept
In the case of B2, the EC50 with Angiopoietin-2 [1] was determined as 3.4 nM.

B3: R5 Tie2 ectodomain-Fc with Ser171 reverted back to Pro (Fc fusion, human, UniProt Q02763 23-442, looked up)
chain: B2 chain with S147P
notes: signal peptide in the construct; Tie2 ectodomain, human, residues 1-442; also called evolved ectodomain in which Ser171 was reverted back to Pro; source: Hek293, transfected, purified from culture medium (nickel chromatography); not shown: Fc (fragment of human Fc immunoglobulin domain, after a GS4 linker), C-terminal, kept
With B3, the binding result with Angiopoietin-2 [1] is given as “binds”.

B4: wild-type Tie2 ectodomain-Fc (Fc fusion, human, UniProt Q02763 23-442, looked up)
chain: AMDLILINSLPLVSDAETSLTCIASGWRPHEPITIGRDFEALMNQHQDPLEVTQDVTREWAKKVVWKREKASKINGAYFCEGRVRGEAIRIRTMKMRQQASFLPATLTMTVDKGDNVNISFKKVLIKEEDAVIYKNGSFIHSVPRHEVPDILEVHLPHAQPQDAGVYSARYIGGNLFTSAFTRLIVRRCEAQKWGPECNHLCTACMNNGVCHEDTGECICPPGFMGRTCEKACELHTFGRTCKERCSGQEGCKSYVFCLPDPYGCSCATGWKGLQCNEACHPGFYGPDCKLRCSCNNGEMCDRFQGCLCSPGWQGLQCEREGIQRMTPKIVDLPDHIEVNSGKFNPICKASGWPLPTNEEMTLVKPDGTVLHPKDFNHTDHFSVAIFTIHRILPPDSGVWVCSVNTVAGMVEKPFNISVK
notes: signal peptide in the construct; Tie2 ectodomain, human, residues 1-442; Order on the chain: Tie2 1-442, GS4 linker, human Fc fragment, His6; also called Wt; Wt-Tie2; source: Hek293, transfected, purified from culture medium (nickel chromatography); not shown: Fc (fragment of human Fc immunoglobulin domain, after a GS4 linker), C-terminal, kept
On to B4, for which the 50% effective concentration (EC50) was 1.37 nM with Angiopoietin-2 [2] and 0.66 nM with Angiopoietin-1 [3].

B5: Tie2 ectodomain-Fc R167A (Fc fusion, human, UniProt Q02763 23-442, looked up)
chain: B4 chain with R145A
notes: signal peptide in the construct; Tie2 ectodomain, human, residues 1-442; also called Arg167Ala; source: Hek293, transfected, purified from culture medium (nickel chromatography); not shown: Fc (fragment of human Fc immunoglobulin domain, after a GS4 linker), C-terminal, kept
In the case of B5, the EC50 with Angiopoietin-2 [2] worked out at 10.3 nM; with Angiopoietin-1 [3], 26.6 nM.

B6: Tie2 ectodomain-Fc H163A (Fc fusion, human, UniProt Q02763 23-442, looked up)
chain: B4 chain with H141A
notes: signal peptide in the construct; Tie2 ectodomain, human, residues 1-442; source: Hek293, transfected, purified from culture medium (nickel chromatography); not shown: Fc (fragment of human Fc immunoglobulin domain, after a GS4 linker), C-terminal, kept
B6: the concentration for a half-maximal effect (EC50) in the test with Angiopoietin-2 [2] turned out to be 5.88 nM; in the test with Angiopoietin-1 [3], 1.38 nM.

B7: Tie2 ectodomain-Fc H168A (Fc fusion, human, UniProt Q02763 23-442, looked up)
chain: B4 chain with H146A
notes: signal peptide in the construct; Tie2 ectodomain, human, residues 1-442; also called Tie2(H168A); His168Ala; source: Hek293, transfected, purified from culture medium (nickel chromatography); not shown: Fc (fragment of human Fc immunoglobulin domain, after a GS4 linker), C-terminal, kept
In the case of B7, the concentration giving a half-maximal response (EC50) with Angiopoietin-2 [2] is 0.5 nM; with Angiopoietin-1 [3] it was 26.4 nM.

B8: Tie2 ectodomain-Fc V165A (Fc fusion, human, UniProt Q02763 23-442, looked up)
chain: B4 chain with V143A
notes: as for B6
In the case of B8, the results for the EC50 in the test with Angiopoietin-2 [2] and in the test with Angiopoietin-1 [3] were 77.7 nM and 14.3 nM, respectively.

B9: Tie2 ectodomain-Fc S164A (Fc fusion, human, UniProt Q02763 23-442, looked up)
chain: B4 chain with S142A
notes: as for B6
With B9, the 50% effective concentration (EC50) was found to be 14.4 nM with Angiopoietin-2 [2] and 0.44 nM with Angiopoietin-1 [3].

B10: Tie2 ectodomain-Fc Arg167Ala/His168Ala/Glu169Ala (Fc fusion, human, UniProt Q02763 23-442, looked up)
chain: B4 chain with R145A, H146A, E147A
notes: signal peptide in the construct; Tie2 ectodomain, human, residues 1-442; also called triple alanine substitution of Arg167, His168 and Glu169; source: Hek293, transfected, purified from culture medium (nickel chromatography); not shown: Fc (fragment of human Fc immunoglobulin domain, after a GS4 linker), C-terminal, kept
Take B10: the binding result with Angiopoietin-2 [1] is listed as “binds”.

B11: Tie2 ectodomain-Fc Arg167Ala/His168Ala (Fc fusion, human, UniProt Q02763 23-442, looked up)
chain: B4 chain with R145A, H146A
notes: signal peptide in the construct; Tie2 ectodomain, human, residues 1-442; also called Arg167Ala/His168Ala Tie2 ectodomain mutant; double substitution; source: Hek293, transfected, purified from culture medium (nickel chromatography); not shown: Fc (fragment of human Fc immunoglobulin domain, after a GS4 linker), C-terminal, kept
In the case of B11, the binding result in the test with Angiopoietin-2 [1] and with Angiopoietin-1 [4] was “binds” each time.

B12: Tie2 ectodomain-Fc E169A (Fc fusion, human, UniProt Q02763 23-442, looked up)
chain: B4 chain with E147A
notes: signal peptide in the construct; Tie2 ectodomain, human, residues 1-442; also called Glu169Ala; source: Hek293, transfected, purified from culture medium (nickel chromatography); not shown: Fc (fragment of human Fc immunoglobulin domain, after a GS4 linker), C-terminal, kept
Regarding B12, the EC50 with Angiopoietin-2 [2] came to 3.94 nM; with Angiopoietin-1 [3], 9 nM.

B13: Tie2 ectodomain-Fc I162A (Fc fusion, human, UniProt Q02763 23-442, looked up)
chain: B4 chain with I140A
notes: as for B6
With B13, the EC50 amounted to 23.1 nM with Angiopoietin-2 [2] and 6.38 nM with Angiopoietin-1 [3].
